B1: GST-DNMT1 (amino acids 1-446) (domain or fragment, human, UniProt P26358 1-446, looked up)
chain: MPARTAPARVPTLAVPAISLPDDVRRRLKDLERDSLTEKECVKEKLNLLHEFLQTEIKNQLCDLETKLRKEELSEEGYLAKVKSLLNKDLSLENGAHAYNREVNGRLENGNQARSEARRVGMADANSPPKPLSKPRTPRRSKSDGEAKPEPSPSPRITRKSTRQTTITSHFAKGPAKRKPQEESERAKSDESIKEEDKDQDEKRRRVTSRERVARPLPAEEPERAKSGTRTEKEEERDEKEEKRLRSQTKEPTPKQKLKEEPDREARAGVQADEDEDGDEKDEKKHRSQPKDLAAKRRPEEKEPEKVNPQISDEKDEDEKEEKRRKTTPKEPTEKKMARAKTVMNSKTHPPKCIQCGQYLDDPDLKYGQHPPDAVDEPQMLTNEKLSIFDANESGFESYEALPQHKLTCFSVYCKHGHLCPIDTGLIEKNIELFFSGSAKPIYDDD
B2: GST-DNMT1 (amino acids 431-836) (domain or fragment, human, UniProt P26358 431-836, looked up)
chain: IELFFSGSAKPIYDDDPSLEGGVNGKNLGPINEWWITGFDGGEKALIGFSTSFAEYILMDPSPEYAPIFGLMQEKIYISKIVVEFLQSNSDSTYEDLINKIETTVPPSGLNLNRFTEDSLLRHAQFVVEQVESYDEAGDSDEQPIFLTPCMRDLIKLAGVTLGQRRAQARRQTIRHSTREKDRGPTKATTTKLVYQIFDTFFAEQIEKDDREDKENAFKRRRCGVCEVCQQPECGKCKACKDMVKFGGSGRSKQACQERRCPNMAMKEADDDEEVDDNIPEMPSPKKMHQGKKKKQNKNRISWVGEAVKTDGKKSYYKKVCIDAETLEVGDCVSVIPDDSSKPLYLARVTALWEDSSNGQMFHAHWFCAGTDTVLGATSDPLELFLVDECEDMQLSYIHSKVKVIY
B3: GST-LSF (amino acids 65-259), DNA binding domain (domain or fragment, human, UniProt Q12800 65-259, looked up)
chain: LPFQYVLCAATSPAVKLHDETLTYLNQGQSYEIRMLDNRKLGELPEINGKLVKSIFRVVFHDRRLQYTEHQQLEGWRWNRPGDRILDIDIPMSVGIIDPRANPTQLNTVEFLWDPAKRTSVFIQVHCISTEFTMRKHGGEKGVPFRVQIDTFKENENGEYTEHLHSASCQIKVFKPKGADRKQKTDREKMEKRTP
notes: Cloned into pGEX-5X-1; also called LSF65-259; source: E. coli, captured on Glutathione Sepharose beads
B4: MBP-LSF fusion protein (purified full-length LSF) (natural protein, human, UniProt Q12800 1-502, looked up)
chain: MAWALKLPLADEVIESGLVQDFDASLSGIGQELGAGAYSMSDVLALPIFKQEESSLPPDNENKILPFQYVLCAATSPAVKLHDETLTYLNQGQSYEIRMLDNRKLGELPEINGKLVKSIFRVVFHDRRLQYTEHQQLEGWRWNRPGDRILDIDIPMSVGIIDPRANPTQLNTVEFLWDPAKRTSVFIQVHCISTEFTMRKHGGEKGVPFRVQIDTFKENENGEYTEHLHSASCQIKVFKPKGADRKQKTDREKMEKRTPHEKEKYQPSYETTILTECSPWPEITYVNNSPSPGFNSSHSSFSLGEGNGSPNHQPEPPPPVTDNLLPTTTPQEAQQWLHRNRFSTFTRLFTNFSGADLLKLTRDDVIQICGPADGIRLFNALKGRMVRPRLTIYVCQESLQLREQQQQQQQQQQKHEDGDSNGTFFVYHAIYLEELTAVELTEKIAQLFSISPCQISQIYKQGPTGIHVLISDEMIQNFQEEACFILDTMKAETNDSYHIILK

What was measured:
[1] = molecular target: B4; test: pull-down; GST-DNMT1 fusions on beads incubated with 1 ug purified MBP-LSF; immunoblot with anti-LSF; conditions: both partners purified
[2] = molecular target: T1, purified full-length DNMT1 (recombinant, baculovirus expressed) (human, UniProt P26358 1-1616); test: pull-down; as a4, in the presence of 2.5 uM FQI1; conditions: both partners purified
T1 construct: DNMT1, human, full length; source: recombinant baculovirus expressed, purified

[3] = molecular target: T1, purified full-length DNMT1 …; test: cell-based or functional assay

B1
binding result [1]: binds

B2
binding result [1]: binds

B3
binding result [2]: binds

B4
DNA methyltransferase activity of purified DNMT1 (80 nM) with His-LSF recombinant protein, molar ratio of His-LSF to DNMT1 from 2:1 to 4:1 [3]: ~2 fold

— paper PMC5347793, “Transcription factor LSF-DNMT1 complex dissociation by FQI1 leads to aberrant DNA methylation and gene expression” (Oncotarget, 2016)
